Broadly, the Kd is the constant that tells how readily two partners part at equilibrium. A higher Kd goes with lower affinity. Usually EC50 stands for the concentration that produces a half-maximal response.

Experiment [1] has as its target T1, human BACE1 ECD.
T1 construct: analyte of the Octet assay (200 nM) and enzyme of the first short substrate assay; also called human BACE1 extracellular domain
Briefly: Octet, pH 5.0. Background: BLI is a label-free optical method that tracks binding on a fibre tip over time.
Experimental: (§1) Anti-BACE1 antibodies were loaded onto anti-human capture (AHC) sensors (tips) followed by 60 seconds baseline in assay buffer. […] Tips were transferred to assay buffer for 5 minutes, 30 minutes, or 120 minutes depending on the off-rate, for off-rate measurement. Assay buffer was either PBS+0.1% BSA, pH 7.5; or PBS+0.1% BSA, pH 5.0. Kinetics were analyzed using a 1:1 binding model.

The target of experiment [2] is T2, murine BACE1 ECD.
T2 construct: analyte of the Octet assay (200 nM) and enzyme of the first short substrate assay
T2 sequence (single chain, as listed by the source limits assumed): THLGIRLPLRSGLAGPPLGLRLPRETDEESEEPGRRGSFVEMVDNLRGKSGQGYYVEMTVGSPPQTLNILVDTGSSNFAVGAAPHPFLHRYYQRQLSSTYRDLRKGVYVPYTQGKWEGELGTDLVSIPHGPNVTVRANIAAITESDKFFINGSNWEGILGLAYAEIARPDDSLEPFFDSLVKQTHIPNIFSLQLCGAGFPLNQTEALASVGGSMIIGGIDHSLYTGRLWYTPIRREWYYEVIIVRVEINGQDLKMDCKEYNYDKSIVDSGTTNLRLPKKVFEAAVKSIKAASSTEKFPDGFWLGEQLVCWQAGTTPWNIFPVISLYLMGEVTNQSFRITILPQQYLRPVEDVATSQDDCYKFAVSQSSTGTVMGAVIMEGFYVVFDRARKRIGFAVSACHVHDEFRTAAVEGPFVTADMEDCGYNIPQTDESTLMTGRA
Briefly: Octet, pH 5.0.
Experimental: as §1

Experiment [3] has as its target T1, human BACE1 ECD. Briefly: Octet, pH 7.5.
Experimental: as §1
Experiment [4] has as its target T2, murine BACE1 ECD. Nature of the experiment: Octet, pH 7.5.
Experimental: as §1
Experiment [5] has as its target BACE1 in primary mouse cortical neurons (mouse, UniProt P56818 46-501). Briefly: cell-based or functional assay.
The target of experiment [6] is T3, human TfR extracellular domain with N-terminal His tag (human, UniProt P02786 89-760).
T3 construct: Biotinylated in some assays; also called huTfR; HuTfR
T3 sequence (P02786 89-760 G142S): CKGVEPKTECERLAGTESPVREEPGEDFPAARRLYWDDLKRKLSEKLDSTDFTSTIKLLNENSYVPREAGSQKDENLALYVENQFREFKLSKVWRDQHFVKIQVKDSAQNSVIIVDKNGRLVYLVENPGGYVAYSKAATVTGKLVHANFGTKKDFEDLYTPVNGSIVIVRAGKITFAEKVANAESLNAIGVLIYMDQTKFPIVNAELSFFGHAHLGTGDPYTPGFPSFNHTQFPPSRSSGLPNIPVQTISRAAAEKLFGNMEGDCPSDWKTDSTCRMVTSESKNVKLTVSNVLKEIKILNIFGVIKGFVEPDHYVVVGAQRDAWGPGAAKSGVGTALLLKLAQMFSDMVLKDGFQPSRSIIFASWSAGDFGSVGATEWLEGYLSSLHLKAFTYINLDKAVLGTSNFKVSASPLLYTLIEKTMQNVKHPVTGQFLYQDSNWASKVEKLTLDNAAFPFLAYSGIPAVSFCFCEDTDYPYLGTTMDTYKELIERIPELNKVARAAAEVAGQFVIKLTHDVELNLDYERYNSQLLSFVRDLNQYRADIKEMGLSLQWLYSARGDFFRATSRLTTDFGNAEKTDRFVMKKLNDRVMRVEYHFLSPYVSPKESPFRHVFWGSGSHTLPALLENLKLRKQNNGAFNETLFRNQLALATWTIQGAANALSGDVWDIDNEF
Briefly: ELISA, IgG.
Experimental: (§2) Affinity variants were generated by making individual alanine substitutions in CDR-L3 or CDR-H3 using standard techniques. These variants were screened as IgG by ELISA and SPR to identify positions important for binding to human and cyno TfR; the monovalent affinity of selected variants as Fab was also determined. […] Plates were washed with PBS/0.05% Tween 20 and blocked using Superblock blocking buffer in PBS (Thermo Scientific, Hudson, N.H.). Supernatants containing expressed IgG were diluted serially 1:5 and added to the plate for 1 h. […] Plates were washed with PBS/0.05% Tween 20 and 1:1000 diluted HRP-Goat-anti kappa (Southern Biotech) was added the plate and incubated for 1 h at room temperature. Plates were washed with PBS/0.05% Tween 20 and detected using TMB substrate (BioFX Laboratories, Owings Mills).

The target in experiment [7] is T4, cyno TfR extracellular domain (analogous construct to human TfR ecd) (cynomolgus monkey, UniProt Q5RDH6 87-760 (Pongo abelii entry)).
T4 construct: also called cynoTfR ecd
T4 chain: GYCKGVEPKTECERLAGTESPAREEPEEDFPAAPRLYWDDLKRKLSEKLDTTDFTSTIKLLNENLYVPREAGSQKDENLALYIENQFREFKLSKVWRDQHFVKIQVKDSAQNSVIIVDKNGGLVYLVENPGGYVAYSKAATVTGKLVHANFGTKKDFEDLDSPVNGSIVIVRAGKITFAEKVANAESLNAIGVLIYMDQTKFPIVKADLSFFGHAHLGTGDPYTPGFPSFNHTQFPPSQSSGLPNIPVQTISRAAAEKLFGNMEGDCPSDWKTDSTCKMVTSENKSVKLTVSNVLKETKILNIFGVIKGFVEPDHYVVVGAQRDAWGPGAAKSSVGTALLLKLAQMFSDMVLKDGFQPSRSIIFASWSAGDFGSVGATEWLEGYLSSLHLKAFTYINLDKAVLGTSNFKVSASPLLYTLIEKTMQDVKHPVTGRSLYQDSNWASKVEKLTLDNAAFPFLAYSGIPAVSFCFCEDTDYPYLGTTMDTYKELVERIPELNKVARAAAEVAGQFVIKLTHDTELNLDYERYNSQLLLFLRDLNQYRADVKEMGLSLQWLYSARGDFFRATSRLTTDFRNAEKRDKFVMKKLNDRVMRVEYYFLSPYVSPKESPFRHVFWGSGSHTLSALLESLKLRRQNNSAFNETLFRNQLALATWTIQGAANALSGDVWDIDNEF
Briefly: ELISA, IgG. A general note: An ELISA detects its analyte on a solid surface through an enzyme-linked reagent.
Experimental: as §2

In experiment [8] the target is T3, human TfR extracellular domain with …. Nature of the experiment: SPR SCK 1:1 fit, IgG.
Experimental: (§3) Antibody affinities were measured using surface plasmon resonance (“SPR”) (Biacore™, GE Healthcare). Anti-His antibody (Qiagen) was coupled onto four different flow cells of a BIACORE™ CM5 sensor chip (Biacore, Inc., Piscataway, N.J.) at between 6000 and 8000 RU. Immobilization was achieved by random coupling through amino groups using a protocol provided by the manufacturer. 10×HBS-P (Biacore, Inc., Piscataway, N.J.) was diluted in water and served as the dilution and running buffer. Purified human or cyno TfR was captured, followed by a 3-fold dilution series of IgG or Fab that was injected at a flow rate of 30 ml/min using the single cycle kinetics method. Affinity constants were determined using a simple 1:1 Langmuir binding model or using a steady state model when kₒₙ or koff was beyond the detection limit. The equilibrium dissociation constant (KD) was calculated as the ratio of association rate constant (kₒₙ) and dissociation rate constant (koff).
(§4) These variants were screened as IgG by ELISA and SPR to identify positions important for binding to human and cyno TfR; the monovalent affinity of selected variants as Fab was also determined. […] Plates were washed with PBS/0.05% Tween 20 and blocked using Superblock blocking buffer in PBS (Thermo Scientific, Hudson, N.H.). Supernatants containing expressed IgG were diluted serially 1:5 and added to the plate for 1 h. […] Plates were washed with PBS/0.05% Tween 20 and 1:1000 diluted HRP-Goat-anti kappa (Southern Biotech) was added the plate and incubated for 1 h at room temperature. Plates were washed with PBS/0.05% Tween 20 and detected using TMB substrate (BioFX Laboratories, Owings Mills). Binding was also assessed by SPR, as described above.
Experiment [9] shares this target. Briefly: SPR steady state, IgG.
Experimental: as §3, §4
Experiment [10] addresses T4, cyno TfR extracellular domain …. Briefly: SPR, TfR captured by anti-His, Fab injected. A general note: Surface plasmon resonance follows binding to a sensor surface in real time, without labels.
Experimental: as §3
In both cases, the SPR experiments were performed as described above.

T1 sequence (single chain, as listed by the source limits assumed): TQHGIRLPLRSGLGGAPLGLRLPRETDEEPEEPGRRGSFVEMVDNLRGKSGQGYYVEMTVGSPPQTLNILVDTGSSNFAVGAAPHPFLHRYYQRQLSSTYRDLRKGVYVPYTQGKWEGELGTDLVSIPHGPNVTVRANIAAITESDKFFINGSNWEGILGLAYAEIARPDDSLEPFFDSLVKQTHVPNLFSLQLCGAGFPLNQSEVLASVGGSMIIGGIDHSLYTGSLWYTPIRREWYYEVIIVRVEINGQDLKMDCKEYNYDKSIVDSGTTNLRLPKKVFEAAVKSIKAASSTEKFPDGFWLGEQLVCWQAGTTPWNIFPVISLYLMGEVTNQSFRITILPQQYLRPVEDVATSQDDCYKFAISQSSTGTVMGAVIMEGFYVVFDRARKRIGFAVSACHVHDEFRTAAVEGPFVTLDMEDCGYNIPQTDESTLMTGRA
BACE1 in primary mouse cortical neurons, sequence (P56818 46-501): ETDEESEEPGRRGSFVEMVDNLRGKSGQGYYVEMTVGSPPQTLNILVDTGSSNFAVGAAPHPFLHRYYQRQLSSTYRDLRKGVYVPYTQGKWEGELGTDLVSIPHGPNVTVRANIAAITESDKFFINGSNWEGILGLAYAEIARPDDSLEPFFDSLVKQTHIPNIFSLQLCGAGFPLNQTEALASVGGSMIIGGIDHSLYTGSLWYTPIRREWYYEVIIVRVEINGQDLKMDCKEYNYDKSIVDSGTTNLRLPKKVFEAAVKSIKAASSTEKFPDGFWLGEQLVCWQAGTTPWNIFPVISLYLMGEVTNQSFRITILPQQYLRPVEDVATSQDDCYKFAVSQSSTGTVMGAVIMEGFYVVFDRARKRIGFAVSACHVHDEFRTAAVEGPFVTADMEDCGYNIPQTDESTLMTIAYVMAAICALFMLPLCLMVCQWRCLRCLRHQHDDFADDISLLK

B1: 6305 (antibody, V domains shown)
VH: QVQLVQSGAEVKKPGSSVKVSCKASGGTLSGYAISWVRQAPGQGLEWMGNIIPGFGTANYAQKSQGRVTITADESTSTAYMELSSLRSEDTAVYYCARSGGTRYGMLDVWGQGTMVTVSS
VL: EIVLTQSPATLSVSPGERATLSCRASQSVGSNLAWYQQKPGQAPRLLIYGASTRATGIPARFSGSGSGTEFTLTISSLQSEDFAVYYCQQSFVWPPRTFGGGTKVEIK
notes: anti-BACE1 IgG
For B1, the Kd in [1] was 0.96 nM; in experiment [2] it was 1.6 nM; in [3], 0.53 nM; in experiment [4], 0.56 nM. Besides, the “IC50, Abeta x-40 in mouse cortical neurons” value in experiment [5] was 9.69 nM. Further, the “maximal % inhibition of Abeta x-40” value in experiment [5] came out at 67%.

B2: 6313 (antibody, V domains shown)
VH: QLQLQESGPGLVKPSETLSLTCTVSGGSISRGSYYWGWIRQPPGKGLEWIGMIYYSGSTWYNPSLKSRVTISVDTSKNQFSLKLSSVTAADTAVYYCARVGHGVSYFDLWGRGTLVTVSS
VL: EIVLTQSPATLSLSPGERATLSCRASQSVSSYLAWYQQKPGQAPRLLIYDASNRATGIPARFSGSGSGTDFTLTISSLEPEDFAVYYCQQAYVWPPRTFGGGTKVEIK
notes: anti-BACE1 IgG
B2: the dissociation constant Kd was under 0.21 nM in experiment [1], under 0.24 nM in experiment [2], 0.41 nM in [3] and 0.27 nM in experiment [4]. Further, the “IC50, Abeta x-40 in mouse cortical neurons” value in [5] is 2.78 nM. Moreover, in experiment [5], the “maximal % inhibition of Abeta x-40” value is 67%.

B3: 6308 (antibody, V domains shown)
VH: QLQLQESGPGLVKPSETLSLTCTVSGGSISWSSYYWSWIRQPPGKGLEWIGSIYRSGRTYYNPSLKSRVTISVDTSKNQFSLKLSSVTAADTAVYYCARVGHGINYFDLWGRGTLVTVSS
VL: EIVLTQSPATLSLSPGERATLSCRASQSVSSYLAWYQQKPGQAPRLLIYDASKRATGIPARFSGSGSGTDFTLTISSLEPEDFAVYYCQQSLVWPPRTFGGGTKVEIK
notes: anti-BACE1 IgG
As to B3, the Kd was under 0.14 nM in experiment [1], under 0.17 nM in experiment [2], under 0.14 nM in [3] and under 0.15 nM in experiment [4]. Further, the “IC50, Abeta x-40 in mouse cortical neurons” value in experiment [5] was 0.68 nM. Moreover, the “maximal % inhibition of Abeta x-40” value in [5] turned out to be 60%.

B4: 6309 (antibody, V domains shown)
VH: QLQLQESGPGLVKPSETLSLTCTVSGGSISWSSYYWSWIRQPPGKGLEWIGSIYRSGRTYYNPSLKSRVTISVDTSKNQFSLKLSSVTAADTAVYYCARVGHGINYFDLWGRGTLVTVSS
VL: EIVLTQSPATLSLSPGERATLSCRASQSVSSYLAWYQQKPGQAPRLLIYDASNRATGIPARFSGSGSGTDFTLTISSLEPEDFAVYYCQQSITWPPRTFGGGTKVEIK
notes: anti-BACE1 IgG
For B4, the Kd in experiment [1] came out at 0.35 nM; in experiment [2] it was 0.37 nM; in [3] it was 0.34 nM; in [4], 0.32 nM. In addition, the “IC50, Abeta x-40 in mouse cortical neurons” value in [5] stood at 0.3 nM. Moreover, the “maximal % inhibition of Abeta x-40” value in [5] is 60%.

B5: 6314 (antibody, V domains shown)
VH: QLQLQESGPGLVKPSETLSLTCTVSGGSISRGSYYWGWIRQPPGKGLEWIGMIYYSGSTWYNPSLKSRVTISVDTSKNQFSLKLSSVTAADTAVYYCARVGHGVSYFDLWGRGTLVTVSS
VL: EIVLTQSPATLSLSPGERATLSCRASQSVSSYLAWYQQKPGQAPRLLIYDASNRATGIPARFSGSGSGTDFTLTISSLEPEDFAVYYCQQSIVWPPRTFGGGTKVEIK
notes: anti-BACE1 IgG
As to B5, the Kd was under 0.22 nM in experiment [1], under 0.26 nM in [2], 0.38 nM in [3] and 0.33 nM in experiment [4]. Moreover, the “IC50, Abeta x-40 in mouse cortical neurons” value in experiment [5] turned out to be 3.38 nM. In [5], the “maximal % inhibition of Abeta x-40” value worked out at 71%.

B6: 6315 (antibody, V domains shown)
VH: QLQLQESGPGLVKPSETLSLTCTVSGGSISRGSYYWGWIRQPPGKGLEWIGMIYYSGSTWYNPSLKSRVTISVDTSKNQFSLKLSSVTAADTAVYYCARVGHGVSYFDLWGRGTLVTVSS
VL: EIVLTQSPATLSLSPGERATLSCRASQSVSSYLAWYQQKPGQAPRLLIYDASKRATGIPARFSGSGSGTDFTLTISSLEPEDFAVYYCQQSLVWPPRTFGGGAKVEIK
notes: anti-BACE1 IgG
For the molecule B6, the Kd in experiment [1] is under 0.21 nM; in [2], under 0.25 nM; in [3], under 0.25 nM; in experiment [4], under 0.26 nM. Besides, the “maximal % inhibition of Abeta x-40” value in [5] is 73%.

B7: 6311 (antibody, V domains shown)
VH: QLQLQESGPGLVKPSETLSLTCTVSGGSISWSSYYWSWIRQPPGKGLEWIGSIYRSGRTYYNPSLKSRVTISVDTSKNQFSLKLSSVTAADTAVYYCARVGHGINYFDLWGRGTLVTVSS
VL: EIVLTQSPATLSLSPGERATLSCRASQSVSSYLAWYQQKPGQAPRLLIYDASNRATGIPARFSGSGSGTDFTLTISSLEPEDFAVYYCQQSLTWPPRTFGGGTKVEIK
notes: anti-BACE1 IgG
Turning to B7, the Kd in experiment [1] worked out at 0.2 nM; in experiment [2], 0.21 nM; in experiment [3] it was 0.25 nM; in experiment [4], 0.24 nM. Also, the “IC50, Abeta x-40 in mouse cortical neurons” value in experiment [5] turned out to be 0.15 nM. Also, the “maximal % inhibition of Abeta x-40” value in [5] was determined as 63%.

B8: 6307 (antibody, V domains shown)
VH: QLQLQESGPGLVKPSETLSLTCTVSGGSISWSSYYWSWIRQPPGKGLEWIGSIYRSGRTYYNPSLKGRVTISVDTSKNQFSLKLSSVTAADTAVYYCARVGHGINYFDLWGRGTLVTVSS
VL: EIVLTQSPATLSLSPGERATLSCRASQSVSSYLAWYQQKPGQAPRLLIYDASNRATGIPARFSGSGSGTDFTLTISSLEPEDFAVYYCQQSIVWPPRTFGGGTKVEIK
notes: anti-BACE1 IgG
As to B8, the dissociation constant Kd was under 0.13 nM in experiment [1], under 0.17 nM in [2], under 0.14 nM in experiment [3] and under 0.15 nM in [4]. The “IC50, Abeta x-40 in mouse cortical neurons” value in [5] was found to be 0.45 nM. Moreover, the “maximal % inhibition of Abeta x-40” value in experiment [5] worked out at 68%.

B9: F91A (antibody, V domains shown)
VH: EVQLVQSGAEVKKPGASVKVSCKASGYTFTSYWMHWVRQAPGQRLEWIGEINPTNGRTNYIEKFKSRATLTVDKSASTAYMELSSLRSEDTAVYYCARGTRAYHYWGQGTMVTVSS
VL: DIQMTQSPSSLSASVGDRVTITCRASDNLYSNLAWYQQKPGKSPKLLVYDATNLADGVPSRFSGSGSGTDYTLTISSLQPEDFATYYCQHAWGTPLTFGQGTKVEIK
notes: also called 15G11.v5 F91A (CDR-L3) IgG
As to B9, the 50% effective concentration (EC50) in experiment [6] was found to be 0.0458 µg/mL; in experiment [7], 0.953 µg/mL. The values for the Kd in experiment [8] and in experiment [9] were 167 nM and 228 nM, respectively.

B10: Hu15G11.HC32A Fab (Fab, V domains shown)
VH: EVQLVQSGAEVKKPGASVKVSCKASGYTFTSAWMHWVRQAPGQRLEWIGEINPTNGRTNYIEKFKSRATLTVDKSASTAYMELSSLRSEDTAVYYCARGTRAYHYWGQGTMVTVSS
VL: DIQMTQSPSSLSASVGDRVTITCRASDNLYSNLAWYQQKPGKSPKLLVYDATNLADGVPSRFSGSGSGTDYTLTISSLQPEDFATYYCQHFWGTPLTFGQGTKVEIK
notes: Fab
Consider B10, for which, in experiment [10], the affinity, expressed as Kd, was 48 nM.

B11: W92A (antibody, V domains shown)
VH: EVQLVQSGAEVKKPGASVKVSCKASGYTFTSYWMHWVRQAPGQRLEWIGEINPTNGRTNYIEKFKSRATLTVDKSASTAYMELSSLRSEDTAVYYCARGTRAYHYWGQGTMVTVSS
VL: DIQMTQSPSSLSASVGDRVTITCRASDNLYSNLAWYQQKPGKSPKLLVYDATNLADGVPSRFSGSGSGTDYTLTISSLQPEDFATYYCQHFAGTPLTFGQGTKVEIK
notes: also called 15G11.v5 W92A (CDR-L3) IgG; 15G11.W92A
For the molecule B11, the midpoint of the response in experiment [6], the EC50, lay at 0.0118 µg/mL. In addition, the figures for the Kd in experiment [8] and in experiment [9] were 31 nM and 123 nM, respectively.

B12: T96A (antibody, V domains shown)
VH: EVQLVQSGAEVKKPGASVKVSCKASGYTFTSYWMHWVRQAPGQRLEWIGEINPTNGRTNYIEKFKSRATLTVDKSASTAYMELSSLRSEDTAVYYCARGARAYHYWGQGTMVTVSS
VL: DIQMTQSPSSLSASVGDRVTITCRASDNLYSNLAWYQQKPGKSPKLLVYDATNLADGVPSRFSGSGSGTDYTLTISSLQPEDFATYYCQHFWGTPLTFGQGTKVEIK
notes: also called 15G11.v5 T96A (CDR-H3) IgG; copies: 2 + 2
With B12, the EC50 in experiment [6] stood at 0.274 µg/mL; in [7], 3.38 µg/mL. The dissociation constant (Kd) in [8] was 173 nM; in experiment [9] it was 433 nM.

The values above are taken from patent US20180057604A1 (Genentech, published 2018).
